Article PMC6239180

How the values were obtained:
[1] = target: T1, hPcf11 (CF II subunit);hClp1 (CF II subunit or alone) (human;human, UniProt O94913;Q92989 1-1555;1-425, |); assay: EMSA
[2] = target: T1, hPcf11 (CF II subunit);hClp1 (CF II …); assay: UV cross-linking and immunoprecipitation

T1 sequence (O94913 whole entry, chain 1 of 2): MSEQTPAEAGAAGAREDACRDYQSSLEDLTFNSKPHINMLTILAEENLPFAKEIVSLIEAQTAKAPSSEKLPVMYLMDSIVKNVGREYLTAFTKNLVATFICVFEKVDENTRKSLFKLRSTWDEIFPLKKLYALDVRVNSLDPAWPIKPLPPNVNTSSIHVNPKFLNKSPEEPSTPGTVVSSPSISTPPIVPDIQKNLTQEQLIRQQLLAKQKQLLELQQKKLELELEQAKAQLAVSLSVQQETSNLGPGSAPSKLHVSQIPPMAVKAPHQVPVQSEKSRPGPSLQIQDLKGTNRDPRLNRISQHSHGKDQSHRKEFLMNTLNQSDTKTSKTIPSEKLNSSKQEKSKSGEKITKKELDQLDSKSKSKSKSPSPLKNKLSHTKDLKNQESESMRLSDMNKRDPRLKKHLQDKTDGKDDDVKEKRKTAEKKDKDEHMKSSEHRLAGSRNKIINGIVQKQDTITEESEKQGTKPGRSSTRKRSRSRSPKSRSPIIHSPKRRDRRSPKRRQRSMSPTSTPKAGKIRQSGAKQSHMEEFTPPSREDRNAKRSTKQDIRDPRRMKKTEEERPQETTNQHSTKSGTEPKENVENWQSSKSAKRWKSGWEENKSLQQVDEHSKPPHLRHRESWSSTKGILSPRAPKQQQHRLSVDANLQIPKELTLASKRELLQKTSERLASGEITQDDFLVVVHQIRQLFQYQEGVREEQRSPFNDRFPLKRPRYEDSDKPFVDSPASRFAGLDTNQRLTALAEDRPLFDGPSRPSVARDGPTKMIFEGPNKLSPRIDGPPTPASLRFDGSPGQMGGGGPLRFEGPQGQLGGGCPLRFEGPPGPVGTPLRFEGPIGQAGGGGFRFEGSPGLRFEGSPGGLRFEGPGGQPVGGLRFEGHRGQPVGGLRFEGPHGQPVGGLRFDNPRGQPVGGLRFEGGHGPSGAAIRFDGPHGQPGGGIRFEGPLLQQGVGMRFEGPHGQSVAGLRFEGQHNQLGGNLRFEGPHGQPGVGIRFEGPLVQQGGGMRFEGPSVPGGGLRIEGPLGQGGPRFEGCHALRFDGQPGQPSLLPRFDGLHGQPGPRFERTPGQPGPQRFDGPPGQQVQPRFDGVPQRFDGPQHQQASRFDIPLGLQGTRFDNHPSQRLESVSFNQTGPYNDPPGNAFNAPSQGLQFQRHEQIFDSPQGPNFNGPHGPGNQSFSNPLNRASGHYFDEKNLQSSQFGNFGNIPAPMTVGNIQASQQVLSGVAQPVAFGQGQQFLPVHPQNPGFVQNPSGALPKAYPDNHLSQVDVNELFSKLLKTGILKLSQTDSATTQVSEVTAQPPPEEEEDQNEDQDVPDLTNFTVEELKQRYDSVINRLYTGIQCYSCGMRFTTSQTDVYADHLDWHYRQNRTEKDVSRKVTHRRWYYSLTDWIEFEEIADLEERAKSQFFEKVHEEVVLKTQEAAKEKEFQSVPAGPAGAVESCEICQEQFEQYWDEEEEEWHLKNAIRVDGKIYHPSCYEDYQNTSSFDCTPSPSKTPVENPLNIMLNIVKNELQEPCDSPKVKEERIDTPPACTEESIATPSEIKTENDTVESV
T1 sequence (Q92989 whole entry, chain 2 of 2): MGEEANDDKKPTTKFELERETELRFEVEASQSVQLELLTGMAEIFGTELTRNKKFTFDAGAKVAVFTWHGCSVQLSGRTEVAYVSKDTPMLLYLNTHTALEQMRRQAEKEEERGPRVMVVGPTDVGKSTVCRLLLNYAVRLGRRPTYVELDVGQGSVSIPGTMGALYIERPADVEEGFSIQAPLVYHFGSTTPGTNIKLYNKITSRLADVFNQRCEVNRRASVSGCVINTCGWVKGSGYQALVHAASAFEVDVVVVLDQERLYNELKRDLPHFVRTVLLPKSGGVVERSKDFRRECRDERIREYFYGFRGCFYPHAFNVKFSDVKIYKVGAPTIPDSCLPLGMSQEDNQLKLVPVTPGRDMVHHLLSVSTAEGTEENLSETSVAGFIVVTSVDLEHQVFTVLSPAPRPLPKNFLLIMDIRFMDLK

Binder: GGGGGGGGGGGGGG (ssRNA) [G14]
- Kd [1]: ~2 nM

Binder: UUUUUUUUUUUUUU (ssRNA) [U14]
- binding result [2]: binds
